According to patent US20220251217A1 (University of California, published 2022):

T1: CD72-Fc (CD72 extracellular domain, aa 117-359, fused to a biotinylated human Fc domain) (human, UniProt P21854 117-359, biotinylated (on the Fc domain; site not stated))
T1 chain: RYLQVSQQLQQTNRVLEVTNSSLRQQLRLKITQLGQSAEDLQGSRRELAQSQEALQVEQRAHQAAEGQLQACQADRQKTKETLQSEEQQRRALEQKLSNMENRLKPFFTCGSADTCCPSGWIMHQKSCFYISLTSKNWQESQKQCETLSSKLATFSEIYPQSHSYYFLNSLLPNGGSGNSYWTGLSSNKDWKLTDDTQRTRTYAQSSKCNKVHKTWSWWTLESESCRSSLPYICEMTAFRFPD

T2: CD72-Fc (CD72 extracellular domain, aa 117-359, fused to a biotinylated human Fc domain) (human, UniProt P21854 117-359, biotinylated (on the Fc domain; site not stated))
T2 construct: range 117-359; Expressed in mammalian cells; also called CD72-ECD-Fc protein; recombinant CD72-Fc fusion protein; not shown: human Fc domain
T2 sequence (looked up): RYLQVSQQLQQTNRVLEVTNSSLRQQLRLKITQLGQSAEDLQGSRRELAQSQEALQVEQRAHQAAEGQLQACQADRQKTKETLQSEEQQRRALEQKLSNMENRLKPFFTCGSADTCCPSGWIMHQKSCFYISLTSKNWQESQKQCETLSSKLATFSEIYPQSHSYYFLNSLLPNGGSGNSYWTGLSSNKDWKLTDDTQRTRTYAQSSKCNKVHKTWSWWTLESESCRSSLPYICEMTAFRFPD


Key:
[1] = target: T1, CD72-Fc (CD72 extracellular domain, aa …); experiment: on-yeast binding (yeast display flow cytometry)
[2] = target: T2, CD72-Fc (CD72 extracellular domain, aa …); experiment: on-yeast affinity measurement, flow cytometry, titration of CD72-Fc
Excerpt: FIG. 4a-e: Isolation of high-affinity CD72 nanobodies with yeast display (a) Schematic of workflow for in vitro anti-CD72 nanobody selection using yeast display. (b) Structure models of the recombinant Fc-fusion proteins used to perform yeast display selections. The Fc protein on the left was used to negatively select potential off-target nanobodies while the CD72-Fc protein (CD72 extracellular domain fused to a human Fc domain) was used to perform positive selection steps to isolate CD72-specific nanobodies (c) Schematic displaying the nanobody yeast display selection strategy for each MACS and FACS selection round to enrich for CD72-specific nanobody binders. Two rounds of MACS followed by four rounds of FACS with decreasing concentration of CD72 antigen produced high affinity anti-CD72 nanobodies. (d) On-yeast binding of recombinant CD72-Fc fusion protein for CD72-selected nanobodies Nb.B5 (nanobody sequence SEQ ID NO:2) and Nb.C2 (nanobody sequence SEQ ID NO:1) expressed on yeast to determine estimated binding affinities. Kd determined by curve fitting using non-linear least squares regression. (e) Flow cytometry plots of yeast clone Nb.C2 binding to 10 nM CD72-ECD-Fc protein (left) or 10 nM Fc protein (right). […]

Row | Kd [1] | binding result [2] | Binder
1 | 1 nM | binds | Nb.B5 (VHH) VHH: QVQLQESGGGLVQAGGSLRLSCAASGTIFPVDYMGWYRQAPGKERELVAGINYGSNTYYADSVKGRFTISRDNAKNTVYLQMNSLKPEDTAVYYCAAWQPEGYAVDFYHPYWGQGTQVTVSS
2 | 1.5 nM | binds | Nb.C2 (VHH, also called yeast clone Nb.C2) VHH: QVQLQESGGGLVQAGGSLRLSCAASGTIFDWYSMGWYRQAPGKERELVAGIDTGANTYYADSVKGRFTISRDNAKNTVYLQMNSLKPEDTAVYYCAAHDDGDPWHVYWGQGTQVTVSS
